Changes are numbered by the printed parent chain. Values after ≈ are worked out from the molar mass of the structure shown. “Also recorded” adds a separate entry of the source.
B1: Cys2: SP1 variant with cysteine residue inserted in position 2, SEQ ID NO:3 (protein)
chain: MCATRTPKLVKHTLLTRFKDEITREQIDNYINDYTNLLDLIPSMKSFNWGTDLGMESAELNRGYTHAFESTFESKSGLQEYLDSAALAAFAEGFLPTLSQRLVIDYFLY
modifications: Sp1 mutant variant Cys in position 2
B2: CRGD2: SP1 fusion protein with N-terminal tumor specific peptide CRGD, SEQ ID NO:5 (protein)
chain: MCRGDATRTPKLVKHTLLTRFKDEITREQIDNYINDYTNLLDLIPSMKSFNWGTDLGMESAELNRGYTHAFESTFESKSGLQEYLDSAALAAFAEGFLPTLSQRLVIDYFLY
modifications: Sp1 mutant variant Cys, Arg, Gly and Asp inserted into position 2
B3: RGDC2: SP1 fusion protein with N-terminal peptide RGDC, SEQ ID NO:6 (protein)
chain: B2 chain with C2R, R3G, G4D, D5C
modifications: Sp1 mutant variant Arg, Gly, Asp and Cys inserted into position 2

Columns and labels:
[1] = system: Human colon adenocarcinoma (HT-29) cells; experiment: In-vitro cytotoxicity in HT-29 cells; format: cell-based
Description: FIGS. 24a and 24b are graphs illustrating the in-vitro cytotoxic effects of SP1-DOX complex. FIG. 24a—HT-29 cells cultured in 96 well microtiter plates were exposed to uncomplexed DOX (closed oval, magenta) or SP1-DOX complex (closed triangle, blue) prepared as described in FIGS. 9-15, at the indicated concentrations. FIG. 24b—HT-29 cells were exposed to uncomplexed SP1 (without DOX) (closed diamond, blue) or SP1-DOX complex (closed triangle, yellow) at indicated concentrations. Proportion of living cells was determined by MTT assay, and the IC50 was calculated.
HT-29 cells were prepared as in FIG. 24 above.
Human colon adenocarcinoma (HT-29) cells. The cells were grown in 50-ml flasks containing DMEM medium (Biological Industries, Bet Haemek), supplemented with 10% fetal calf serum, 1% glutamine and 1% Antibiotic-Antimicotic solution (Biolab, Israel). The cells were trypsinizated, and 2 ml medium containing 5×10^4 cells were plated in each well of a 6-wells plate. SP1, drugs or SP1-complexed with drugs was added at the indicated concentrations. The cells were incubated at 37° C. in a humidified atmosphere containing 5% CO2.After 48 hours the medium in the presence or absence of drugs was replaced in each well respectively, to maintain a constant supply of ingredients and drugs. After four days the medium was removed and the number of viable cells in the cultures was determined by spectroscopy.
The human colorectal adenocarcinoma cell line, HT-29, was used to evaluate the biological activity of the SP1-DOX complex, compared to that of the free drug and un-complexed SP1 protein. […] Thus, the SP1-DOX complex is at least as biologically active as free DOX.

[2] = Oligomeric complex formation by SDS PAGE (unboiled samples); settings: boiling and protease stability
Method: SP1 (20 μg) was prepared in SDS sample buffer at different SP1-monomer: SDS molar ratios and boiled (or not) (5 mM) prior to SDS-PAGE analysis. Heat stability of SP1 oligomer (10 μg) was tested in the same buffer at SP1-monomer: SDS=1:1733 and heated for 1 to 10 mM at different temperatures.
Purified 6HSP1 and ΔNSP1 were first denatured to the monomeric forms by boiling the proteins in SDS sample buffer. The denatured proteins were then separated in preparative SDS-PAGE, and visualized by Coomassie blue staining. The monomeric forms of two recombinant protein bands were excised. Gel slices that carried monomeric form of 6HSP1 (SEQ ID NO:7) and ΔNSP1 (SEQ ID NO:2) were mixed at 1:1 ratio (v/v). In order to enhance the surface/volume ratio, the gel slices were pulverized using a pestle and mortar in the presence of liquid nitrogen. […] The hetero-oligomeric complex was isolated by subjecting the eluated protein to Ni-NTA Agarose beads and the bound proteins were eluted by 400 mM imidazole using a standard procedure (Sigma protocol for P 6611). […] The composition of hetero-oligomeric SP1 was determined by SDS-PAGE and visualized by silver staining.

[3] = Resistance of SP1 complex to organic solvents; format: physicochemical
Method: 150 ul of 1 mg/ml samples in 10 mM sodium phosphate pH 7 were lyophilized overnight and resuspended in 150 μl organic solvents for 10 minutes. Following a 30 minutes speed vac the samples were resuspended in 150 μl water and analyzed by SDS-PAGE.
In order to further test the stability of SP1 and SP1 oligomeric complexes, wild type SP1 and the SP1 variant Cys2 SP1 were dissolved in buffer, exposed to organic solvents methanol and hexane, and analyzed by SDS-PAGE (FIG. 18).
In order to determine the stability of the SP1 complex in organic solvents, SP1 and Cys2 SP1-variant (SEQ ID NO: 3) were dissolved in organic solvents, dried, reconstituted with aqueous solvent, and separated on SDS-PAGE.

[4] = Fluorescein-amine complex formation (ultrafiltration, size exclusion HPLC); format: binding
Method: FIG. 9 is a histogram showing redox-dependent complex formation with small molecules by Cys2 SP1. Pure Cys 2 mutant (1.5 mg/ml in Phosphate buffered saline, pH=7.5 (PBS)) was incubated for 2 hours at room temp, with I mM fluorescein-amine with or without glutathione (reduced form, GSH 3 mM). Binding reaction was stopped by adding hydrogen peroxide (0.01%), followed by ultra filtration (using a 30 kD cutoff filter) and extensive wash. Absorption analysis was conducted at both 278 and 492 nm, and the results expressed as the 492/278 ratio. Note that in the absence of the reducing agent (GSH), retention of the flourescein-amine is negligible;
FIG. 10 is a graphic representation of the redox-dependent fluorescein amine complex formation by Cys2 SP1, compared to the recombinant SP1. Fluorescein-amine was incubated with pure SP1 or Cys2 SP1 mutant (1.5 mg/ml in PBS pH=7.5) in the absence or presence of DTT (10 mM). Binding reaction was stopped by adding hydrogen peroxide (0.01%), followed by ultra filtration (using 30 kD cutoff filter) and extensive wash. Samples were analyzed by Gel filtration HPLC, and detected at both 228 and 490 nm. Calculated data is shown on the right.
FIG. 11 is a histogram illustrating the concentration dependent complex formation with fluorescein-amine by Cys2 SP1. Huorescien-amine (10, 33, 100 or 333 mM) was incubated with Cys 2 SP1 or pure wild type SP1 in the presence of 10 mM DTT, and the bound and unbound fractions analyzed by ultra-filtration and HPLC as in FIG. 10.
(§1) Ultrafiltration was used for the detection of complex formation with the water soluble ligands FA and DOX which have a distinctive absorption properties and can be determined by spectroscopic measurements. […] Several additional washing cycles remove all remaining free FA and DOX, and the ligand-SP1 complex remains in the retained fraction.
(§2) Size exclusion chromatography is a common method for separation of molecules of different sizes under mild conditions and was employed to test FA and DOX complex formation under mild conditions. SP1 is eluted from the column after 7 min and is detected at 278 nm only, and free FA is eluted from the column (TSK G3000 SWXL, Tosohaas) after 16 min and is detected at 490 nm. The SP1-FA and SP1-DOX complexes also eluted at the same time but is detected also at 490 and 475 nm, respectively. DOX/SP1 ratio is determine from the standard curve obtained in solution.
5. Can complexed ligand be stabilized by association with the Cys2 SP1? Fluoresceine amine (FA): FA absorption peak is at 490 nm and at much lower extend at 278 nm (for a given FA concentration OD278/OD490=0.19)(see FIG. 31), when SP1 absorption peak is at 278 nm (see FIG. 30), and it is not detected at 490 nm. […] FA complexing with the Cys2 Sp1 variant was determined following incubation of FA and Cys2 SP1 variant in the absence or presence of GSH, followed by protein oxidation, ultra filtration (30 kDa cutoff) and exhaustive wash of the retained fraction with PBS with or without GSH. Absorption analysis at both 278 and 490 nm.

[5] = Doxorubicin complex formation and release (ultrafiltration, HPLC, SDS PAGE fluorescence); format: binding; settings: for DOX complex formation: reducing conditions (DTT or GSH)
Method: Pure wild type SP1 or Cys2 SP1 mutant (1.5 mg/ml in 20 mM Sodium Phosphate buffered, pH=6.8) were incubated overnight at room temp, with DOX 1 mg/ml in the presence of DTT (10 mM), with gentle rolling. Binding reaction was stopped by adding hydrogen peroxide (0.01%), followed by ultra filtration (using 30 kD cutoff filter) and extensive wash until follow-through become colorless. Optical density was measured at both 278 and 477 nm using nanodrop spectrophotometer. Note the dramatic effect of the reducing agent on drug binding by the Cys2 SP1, compared to the absence of effect on the wild type SP1.
FIG. 13 is a histogram illustrating the redox-dependent release of Doxorubicin by Cys2 SP1. Doxorubicin (DOX) was complexed within Cys2 SP1 as described in FIGS. 9-12 above. Release of the drug in the presence of 0, 2 and 20 mM GSH was measured by ultrafiltration and size exclusion HPLC analysis (detection at 228 and 475 nm);
FIG. 14 is a histogram illustrating the effect of oxidation on DOX complex formation by Cys2 SP1. Doxorubicin (DOX) was reacted with Cys2 SP1 and wild type SP1 as described in FIGS. 9-13 above. Oxidized protein indicates exposure to excess of H2O2 prior to treatment with GSH. DOX complex formation was measured by ultrafiltration and size exclusion HPLC analysis (detection at 228 and 475 nm). […] 1=the retentate; 2=the flow through; and 3=a DOX standard 20 μg/ml.
FIG. 17 is a photograph of a fluorescent PAGE analysis illustrating effective complex formation with DOX by Cys2 and SP1 fusion proteins. Recombinant wild type (lanes 1 and 2), Cys2 (lanes 3 and 4), and SP1 fusion proteins having additional N-terminal tumor specific peptide RGD (CRGD, SEQ ID NO:151; fusion protein is SEQ ID NO: 5)(lanes 5 and 6), or RGD in reverse order (RGDC, SEQ ID NO: 152; fusion protein is SEQ ID NO: 6)(lanes 7 and 8) were reacted with DOX to form complex as described in FIGS. 9-14 above, and then separated on SDS-PAGE with (lanes 2, 4, 6 and 8) or without (lanes 1, 3, 5 and 7) denaturation by boiling in LSB.
as §1, §2
Reverse phase HPLC (RP-HPLC) analysis separates between free DOX, PXT, and SP1. Both compounds bind to the resin (C-18) and are eluted at different acetonitrile concentrations, and detected at both 278 and 225 nm (SP1), 225 nm (PTX) and 477 nm (DOX).
Pyrogen free Cys2 SP1 variant (SEQ ID NO:3) in 20 mM (Na Phosphate buffer pH-6.7) final 2 mg/ml was diluted with DOX solution (Teva, Israel) 1:2 dilution final 1 mg/ml. Where indicated, GSH was added, and the solution is mixed overnight. Where indicated (oxidized), H2O2 is added to 0.1%, buffer added to 3× volume, and the solution is sonicated (3×22 sec. 1:1 pulse/pause at 3% amplitude 0.5 min. pause, using a Vibra-Cell 750 W sonicator).

[6] = Heat stability (no precipitation after heat treatment); settings: 10 min at 100° C. or 30 min at 85° C.

Row | Molecule | IC50 ([1]; Homo sapiens, HT-29 cells, dose inhibiting 50% of cell growth, read-out: IC50) | biological activity after storage in aqueous solution ([1]; at least 3 weeks storage in aqueous solution) | oligomeric complex formation, stability and resistance [2] | protease resistance after hexane treatment ([3]; hexane-treated, data not shown) | resistance of oligomeric complex to organic solvents ([3]; methanol, hexane, SDS-PAGE) | FA complexing at low ligand concentration ([4]; 10 μM FA, 10 mM DTT) | efficiency of FA complexing in the presence of reducing agents ([4]; 10 mM DTT) | retention of the flourescein-amine ([4]; absence of the reducing agent (GSH), 492/278 ratio) | efficiency of FA complexing relative to wild type SP1 ([4]; ≧100 μM FA) | DOX complexing after oxidation prior to DOX addition ([5]; oxidized protein (H2O2)) | DOX complex formation [5] | DOX complex formation ([5]; listed as Cys2 SP1 variant) | Heat stability [6] | oligomeric complex formation, stability and resistance ([2]; listed as CRGD SP1) | oligomeric complex formation, stability and resistance ([2]; listed as RGDC SP1)
1 | CC(=O)O[C@H]1C(=O)[C@@]2(C)[C@H]([C@H](OC(=O)c3ccccc3)[C@]3(O)C[C@H](OC(=O)[C@H](O)[C@@H](NC(=O)c4ccccc4)c4ccccc4)C(C)=C1C3(C)C)[C@]1(OC(C)=O)CO[C@@H]1C[C@@H]2O [PTX, paclitaxel] | ~0.01 mg/L (≈ 0.0117 µM) | becomes inactive |  |  |  |  |  |  |  |  |  |  |  |  | 
2 | B1 |  |  | formed homo- and hetero-oligomeric complexes | resistance to protease treatment | Predominantly high molecular weight oligomer complex form; also recorded: even more resistant than the wild type | efficient complexing | greater than 3 fold | negligible | greater than 3 fold | eliminates DOX complexing | effective binding | much greater extent | + |  | 
3 | B2 |  |  | formed a boiling stable and protease resistant dodecamer |  |  |  |  |  |  |  | effective binding |  | + | formed homo- and hetero-oligomeric complexes | 
4 | B3 |  |  | formed a boiling stable and protease resistant dodecamer |  |  |  |  |  |  |  | effective binding |  | + |  | formed homo- and hetero-oligomeric complexes

Reference: patent US20150273076A1, “SP1 POLYPEPTIDES, MODIFIED SP1 POLYPEPTIDES AND USES THEREOF” (Fulcrum SP Ltd., priority 2006, published 2015)
